Laboratory results: US20230012273A1 (Boehringer Ingelheim, published 2023)

T1: cynoSIRPα (EGM_02252), Extracellular Domain + His-Tag (cynomolgus monkey)
T1 construct: also called CySIRPα EGM_02252; not shown: His-Tag
T1 chain: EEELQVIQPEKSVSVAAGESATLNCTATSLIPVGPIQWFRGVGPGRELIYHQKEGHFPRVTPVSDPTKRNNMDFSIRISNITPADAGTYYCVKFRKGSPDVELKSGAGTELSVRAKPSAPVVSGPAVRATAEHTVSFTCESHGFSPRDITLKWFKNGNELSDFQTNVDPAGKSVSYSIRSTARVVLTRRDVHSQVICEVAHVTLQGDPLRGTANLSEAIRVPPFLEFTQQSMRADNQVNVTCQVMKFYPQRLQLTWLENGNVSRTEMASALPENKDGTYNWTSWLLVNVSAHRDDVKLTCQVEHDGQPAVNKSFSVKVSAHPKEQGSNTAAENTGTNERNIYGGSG

T2: cynoSIRPα (NP_001271679), Extracellular Domain + His-Tag (cynomolgus monkey)
T2 construct: also called CySIRPα NP_001271679; not shown: His-Tag
T2 chain: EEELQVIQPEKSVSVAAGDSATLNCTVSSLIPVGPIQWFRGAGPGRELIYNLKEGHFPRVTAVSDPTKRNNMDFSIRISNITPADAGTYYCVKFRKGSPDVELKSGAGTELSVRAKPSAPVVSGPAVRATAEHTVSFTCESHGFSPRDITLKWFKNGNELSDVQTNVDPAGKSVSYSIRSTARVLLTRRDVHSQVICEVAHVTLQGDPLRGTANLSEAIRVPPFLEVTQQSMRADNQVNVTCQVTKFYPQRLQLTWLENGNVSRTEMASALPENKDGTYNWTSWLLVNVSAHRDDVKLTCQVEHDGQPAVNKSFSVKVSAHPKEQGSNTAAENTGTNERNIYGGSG

T3: cynoSIRPα (XP_015313155), Extracellular Domain + His-Tag (cynomolgus monkey)
T3 construct: also called CySIRPα XP_015313155; not shown: His-Tag
T3 chain: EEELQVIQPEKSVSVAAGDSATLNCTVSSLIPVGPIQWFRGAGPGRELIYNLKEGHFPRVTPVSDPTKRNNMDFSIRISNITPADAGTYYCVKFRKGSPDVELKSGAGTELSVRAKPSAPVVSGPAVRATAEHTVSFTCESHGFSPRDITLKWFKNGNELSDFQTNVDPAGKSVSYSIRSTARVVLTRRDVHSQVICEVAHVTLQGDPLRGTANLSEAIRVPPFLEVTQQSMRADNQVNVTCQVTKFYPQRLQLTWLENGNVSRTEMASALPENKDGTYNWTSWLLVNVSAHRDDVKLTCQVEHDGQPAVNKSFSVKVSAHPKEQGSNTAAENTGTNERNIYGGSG


Tests used:
[1] = target: T1, cynoSIRPα (EGM_02252), Extracellular …; experiment: SPR, antibody captured on Protein A/G, ECD-His analyte
Description: (§1) The binding kinetics of anti-SIRPα antibodies to various SIRPα analytes are determined by surface plasmon resonance (SPR) using a Biacore 8K+(Cytiva). 1×HBS-EP+(Cytiva) is used as running buffer and for all the dilutions unless stated otherwise. The Series S CM5 sensorchip is activated with a 1:1 mixture of 0.1 M NHS (N-hydroxysuccinimide) and 0.4 M EDC (1-Ethyl-3-(3-dimethylaminopropyl) carbodiimide hydrochloride) for 420 seconds at a flow rate of 10 μl/min and immobilized with Protein A/G (Thermo Scientific, 10 μg/ml in 10 mM acetate pH 4.5) for 420 seconds at a flowrate of 10 μl/min resulting in approximately 3000 RU of Protein A/G on the surface. The sensorchip is then deactivated with 1 M ethanolamine HCl pH 8.5 for 420 seconds at a flowrate of 10 μl/min.
(§2) Antibodies (approximately 1 ug/ml) are captured on the Protein A/G surface for 60 seconds at a flowrate of 10 μl/min resulting in capture levels of approximately 240 RU. Dilutions of each SIRP protein (Extracellular Domain+His-Tag, with the concentrations as indicated) are injected as analytes over the captured antibody for 300 seconds of association at a flowrate of 30 μl/min, followed by a dissociation for 600 seconds.

[2] = target: T4, Human SIRPαV1 (NP_542970.1), Extracellular Domain + His-Tag (human, UniProt P78324 31-373); experiment: SPR, antibody captured on Protein A/G, ECD-His analyte, 1:1 fit
T4 construct: also called huSIRPαV1; hSIRPαV1; not shown: His-Tag
T4 sequence (P78324 other isoform, or with tags, fused parts or gaps): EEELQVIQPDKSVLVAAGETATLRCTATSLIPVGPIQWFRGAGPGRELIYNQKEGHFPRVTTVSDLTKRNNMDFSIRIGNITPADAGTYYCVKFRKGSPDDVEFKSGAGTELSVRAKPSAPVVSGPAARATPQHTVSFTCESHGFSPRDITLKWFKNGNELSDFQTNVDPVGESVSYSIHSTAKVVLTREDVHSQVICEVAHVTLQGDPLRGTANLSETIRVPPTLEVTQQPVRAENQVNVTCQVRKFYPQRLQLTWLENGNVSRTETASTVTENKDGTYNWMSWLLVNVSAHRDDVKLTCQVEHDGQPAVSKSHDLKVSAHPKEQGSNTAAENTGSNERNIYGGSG
Description: as §1, §2
(§3) The above procedures are used to measure binding properties of antibodies of the present disclosure. For each analyte used, the highest concentration was as indicated in Example 3 (see Table 36).

[3] = target: T5, Human SIRPαV2 (CAA71403.1), Extracellular Domain + His-Tag (human, UniProt P78324 31-373); experiment: as above
T5 construct: also called huSIRPαV2; hSIRPαV2; not shown: His-Tag
T5 sequence (P78324 other isoform, or with tags, fused parts or gaps): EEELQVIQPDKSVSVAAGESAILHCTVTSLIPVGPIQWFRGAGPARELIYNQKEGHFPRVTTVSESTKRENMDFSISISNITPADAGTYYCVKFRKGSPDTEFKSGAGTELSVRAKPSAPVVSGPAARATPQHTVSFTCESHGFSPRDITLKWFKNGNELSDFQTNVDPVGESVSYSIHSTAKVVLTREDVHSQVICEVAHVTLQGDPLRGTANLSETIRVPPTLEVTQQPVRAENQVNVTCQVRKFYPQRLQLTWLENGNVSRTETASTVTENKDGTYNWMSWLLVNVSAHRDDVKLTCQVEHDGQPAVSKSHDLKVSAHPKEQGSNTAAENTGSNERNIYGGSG
Description: as §1, §2, §3

[4] = target: T2, cynoSIRPα (NP_001271679), Extracellular …; experiment: as above
Description: as §1, §2, §3

[5] = target: T3, cynoSIRPα (XP_015313155), Extracellular …; experiment: as above
Description: as §1, §2, §3

Row | binding result [1] | Kd [2] [nM] | koff [2] [s⁻¹] | kon [2] [M⁻¹ s⁻¹] | Kd [3] [nM] | koff [3] [s⁻¹] | kon [3] [M⁻¹ s⁻¹] | Kd [4] [nM] | koff [4] [s⁻¹] | kon [4] [M⁻¹ s⁻¹] | Kd [5] [nM] | koff [5] [s⁻¹] | kon [5] [M⁻¹ s⁻¹] | Binder
1 | no binding (tested: 1000 nM) | 1.22 | 0.000631 | 518000 | 0.94 | 0.000548 | 583000 | 43.7 | 0.014 | 321000 | 40.8 | 0.0132 | 324000 | Antibody E9 (antibody, human IgG1, kappa, L234A L235A, V domains shown) VH: QVQLQESGPGLVRPSETLSLTCTVSGGSIRNYYWSWIRQPPGKGLEWIGFIYYNGRTFYNPSLKSRVTISLDMSINQFSLKMTSVTAADTAVYYCARVRAYSGIGLDGTDVWGQGTTVTVSS VL: DIVMTQSPLSLPVTPGEPASISCKSSQSLLYSNAYNYLDWYLQRPGQSPQLLIYLGSNRASGVPDRFSGSGSGTDFTLKISRVEAEDVGVYYCMQALQTPLTFGGGTKVEIKR
2 | no binding (tested: 1000 nM) | 1.23 | 0.000518 | 422000 | 1.2 | 0.000596 | 498000 | 25.2 | 0.00545 | 216000 | 23.7 | 0.00526 | 222000 | Antibody E10 (antibody, human IgG1, kappa, L234A L235A, V domains shown) VH: QVQLQESGPGLVRPSETLSLTCTVSGGSIRNYYWSWIRQPPGKGLEWIGFIYYNGRTFYNPSLKSRVTISLDTSKNQFSLKMTSVTAADTAVYYCARVRAYSGIGLDGTDVWGQGTTVTVSS VL: DIVMTQSPLSLPVTPGEPASISCKSSQSLLYSNGYAYLDWYLQRPGQSPQLLIYLGSNRASGVPDRFSGSGSGTDFTLKISRVEAEDVGVYYCMQALQTPLTFGGGTKVEIKR
3 | no binding (tested: 1000 nM) | 1.41 | 0.000498 | 352000 | 0.57 | 0.000258 | 453000 | 20.3 | 0.00542 | 267000 | 20 | 0.00549 | 275000 | Antibody E11 (antibody, human IgG1, kappa, L234A L235A, V domains shown) VH: QVQLQESGPGLVRPSETLSLTCTVSGGSIRNYYWSWIRQPPGKGLEWMGFIYDNGRTFYNPSLKSRVTISLDMSMNQFSLKMTSVTAADTAVYYCARVRAYSGIGLDGTDVWGQGTTVTVSS VL: DIVMTQSPLSLPVTPGEPASISCKSSQSLLYSNGYAYLDWYLQRPGQSPQLLIYLGSNRASGVPDRFSGSGSGTDFTLKISRVEAEDVGVYYCMQALQTPLTFGGGTKVEIKR
4 | no binding (tested: 1000 nM) | 1.91 | 0.000802 | 421000 | 0.74 | 0.000369 | 501000 | 49.4 | 0.012 | 243000 | 46.2 | 0.0113 | 245000 | Antibody E15 (antibody, human IgG1, kappa, L234A L235A, V domains shown) VH: QVQLQESGPGLVRPSETLSLTCTVSGGSIRNYYWSWIRQPPGKGLEWIGFIYYTGRTFYNPSLKSRVTISLDMSINQFSLKMTSVTAADTAVYYCARVRAYSGIGLDGTDVWGQGTTVTVSS VL: DIVMTQSPLSLPVTPGEPASISCKSSQSLLYSNGYAYLDWYLQRPGQSPQLLIYLGSNRASGVPDRFSGSGSGTDFTLKISRVEAEDVGVYYCMQALQTPLTFGGGTKVEIKR
5 | no binding (tested: 1000 nM) | 1.7 | 0.000671 | 394000 | 0.69 | 0.000338 | 490000 | 38.3 | 0.00755 | 197000 | 37.4 | 0.00711 | 190000 | Antibody E13 (antibody, human IgG1, kappa, L234A L235A, V domains shown) VH: QVQLQESGPGLVRPSETLSLTCTVSGGSIRNYYWSWIRQPPGKGLEWIGFIYYTGRTFYNPSLKSRVTISLDMSINQFSLKMTSVTAADTAVYYCARVRAYSGIGLDGTDVWGQGTTVTVSS VL: DIVMTQSPLSLPVTPGEPASISCKSSQSLLYSNGYAYLDWYLQRPGQSPQLLIYQGSNRASGVPDRFSGSGSGTDFTLKISRVEAEDVGVFYCMQALQTPLTFGGGTKVEIKR
6 | no binding (tested: 1000 nM) | 1.84 | 0.000743 | 403000 | 1.36 | 0.000615 | 453000 | 90.7 | 0.0173 | 190000 | 86.3 | 0.0173 | 200000 | Antibody E14 (antibody, human IgG1, kappa, L234A L235A, V domains shown) VH: QVQLQESGPGLVRPSETLSLTCTVSGGSIRNYYWSWIRQPPGKGLEWIGFIYYNGRTFYNPSLKSRVTISLDKSKNQFSLKMTSVTAADTAVYYCARVRAYSGIGLDGTDVWGQGTTVTVSS VL: DIVMTQSPLSLPVTPGEPASISCKSSQSLLYSNAYNYLDWYLQRPGQSPQLLIYLGSNRASGVPDRFSGSGSGTDFTLKISRVEAEDVGVYYCMQALQTPLTFGGGTKVEIKR
7 | no binding (tested: 1000 nM) | 2.15 | 0.00106 | 490000 | 1.93 | 0.00105 | 547000 | 50 | 0.0158 | 313000 | 48.8 | 0.0147 | 300000 | Antibody E16 (antibody, human IgG1, kappa, L234A L235A, V domains shown) VH: QVQLQESGPGLVRPSETLSLTCTVSGGSIRNYYWSWIRQPPGKGLEWIGFIYYNGRTFYNPSLKSRVTISLDTSKNQFSLKMTSVTAADTAVYYCARVRAYSGIGLDGTDVWGQGTTVTVSS VL: DIVMTQSPLSLPVTPGEPASISCKSSQSLLYSNAYNYLDWYLQRPGQSPQLLIYLGSNRASGVPDRFSGSGSGTDFTLKISRVEAEDVGVYYCMQALQTPLTFGGGTKVEIKR
8 | no binding (tested: 1000 nM) | 1.67 | 0.000819 | 490000 | 1.26 | 0.000709 | 562000 | 46.1 | 0.0129 | 279000 | 42.2 | 0.0125 | 297000 | Antibody E12 (antibody, human IgG1, kappa, L234A L235A, V domains shown) VH: QVQLQESGPGLVRPSETLSLTCTVSGGSIRNYYWSWIRQPPGKGLEWIGFIYYNGRTFYNPSLKSRVTISLDMSKNQFSLKMTSVTAADTAVYYCARVRAYSGIGLDGTDVWGQGTTVTVSS VL: DIVMTQSPLSLPVTPGEPASISCKSSQSLLYSNAYNYLDWYLQRPGQSPQLLIYLGSNRASGVPDRFSGSGSGTDFTLKISRVEAEDVGVYYCMQALQTPLTFGGGTKVEIKR
